Reference: the supplement of paper PMC12764529
± gives the half width of the 95% confidence interval.

Experiments:
[1] = folding stability dG unfold from trypsin proteolysis; higher = more stable
Procedure, shortened: (§1)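 Bayesian fitting of sequencing counts gave K50 for each design. Unfolding free energy followed by setting this against a sequence-predicted unfolded-state K50 and a shared folded-state K50, either per protease or with trypsin and chymotrypsin combined. The designs, under 80 residues and lacking cysteine, were digested in a PA-tagged cDNA display format at 11 threefold-diluted protease concentrations and without protease, and only those with AlphaFold2 dimer inter-PAE above 15 were kept.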

[2] = folding stability dG unfold from chymotrypsin proteolysis; higher = more stable
Procedure, shortened: as §1

[3] = folding stability dG unfold (combined trypsin and chymotrypsin); higher = more stable
Procedure, shortened: as §1

Row | Sequence | folding stability dG unfold [1] | folding stability dG unfold [2] | folding stability dG unfold [3]
1 | SAGGSAGGSANVKLKIDLDPGYGYIKIKLEWEDPGTGNKQEMEITIPIPIPPPPPPPANDKKSAGGSAGGSA [r18_361_TrROS] | 1.12 ± 0.11 kcal/mol | 2.17 ± 0.11 kcal/mol | 1.93 ± 0.43 kcal/mol
2 | SAGGSAGGSAGNPNTPVIVKITLPGGKEITLEGTVSEAEEIVKKLEEEGHPFVEVEVYNRSAGGSAGGSAGG [r11_946_JUSTAS] | 0.422 ± 0.041 kcal/mol | -0.849 ± 0.3 kcal/mol | 0.0762 ± 0.14 kcal/mol
3 | SAGGSAMPVVELPIGPELYEKIKEAAEAGDPDKVITLPLKLPNGEEVTLVVEADPATPEFRARVELSAGGSA [r15_700_TrMRF] | -0.683 ± 0.1 kcal/mol | 0.397 ± 0.085 kcal/mol | 0.105 ± 0.096 kcal/mol
4 | SAGGIRIRDEDGKPRAEYTIYHPDHGMPIEINVYRNKDGNPYIQVEMTGPNGRPKKFTMPADDLNDLSAGGS [r8_24_TrROS] | -0.862 ± 0.52 kcal/mol | 0.559 ± 0.13 kcal/mol | 0.266 ± 0.082 kcal/mol
5 | SAGGPMPPGQKRTVTIDLEYNPENGGYRVRAYSPGGKPIEEFPFPRDNLEEFAEEFANKGVDYVEIEPSAGG [r13_765_TrROS] | -0.217 ± 0.19 kcal/mol | 0.528 ± 0.18 kcal/mol | 0.325 ± 0.16 kcal/mol
6 | SAGGSAGGSNWYQFTIPFPIPPDEPVEIKLPDGWEIHEIPPNSGRITIYMPMNNMDAIKEAIGSAGGSAGGS [r12_476_TrROS] | 1.214 ± 0.012 kcal/mol | 1.01 ± 0.045 kcal/mol | 1.19 ± 0.056 kcal/mol
7 | SAGGSAGGIRINPENGQIYFPLENGKAKSVPFKPGQEREIPNGWRITIKPDPPGPWEIEVKPLDSAGGSAGG [r6_296_TrROS] | -0.509 ± 0.42 kcal/mol | -0.578 ± 0.61 kcal/mol | -0.499 ± 0.22 kcal/mol
8 | SAGGDPVRIFIMSGNGIFPIEIPLDPGEKVEFEMKFNGQEVTITITPGDGEIEIEMPPGFNIMALEPSAGGS [r16_761_TrROS] | 1.59 ± 0.086 kcal/mol | 2.05 ± 0.038 kcal/mol | 1.89 ± 0.11 kcal/mol
9 | SAGGSAGGPKHVEIVITPDLRKEIEENQKEGDPPTLMEIAKEIAREFRANGMPVDIKILPPEDFSAGGSAGG [r6_815_TrROS] | 0.216 ± 0.07 kcal/mol | 0.29 ± 0.31 kcal/mol | 0.452 ± 0.23 kcal/mol
10 | SKKKKIKKITLTFTTSDGSTITIEIDADQTVTITLPDGSTITITFDKDTGILTITVTNKDGSKQEFKIELSA [r9_99_TrROS_Hall] | 1.82 ± 0.075 kcal/mol | 3.08 ± 0.051 kcal/mol | 2.6 ± 0.11 kcal/mol
11 | SAGGSAGGSAGLPPGDKVTISIPIVIPDGYMINSHITIDPDNGETEIEIQIYPLKDPDALSAGGSAGGSAGG [r11_695_TrROS] | 2.1 ± 0.21 kcal/mol | 2.12 ± 0.11 kcal/mol | 2.11 ± 0.14 kcal/mol
12 | SAGGSAGGMTVTFTLPATAPENALENVTATVTYNGKTYLVKITATPVPDGPFVVVTAELVEYDPSAGGSAGG [r6_415_TrMRF] | 3.02 ± 0.083 kcal/mol | 3.68 ± 0.14 kcal/mol | 3.34 ± 0.17 kcal/mol
13 | SAGGSAGGSAGGSKIRLKINMTEEELKELLKKLFPNAKVTRIERKKDGSIYVEIELEPESAGGSAGGSAGGS [r4_95_TrROS_Hall] | 2.94 ± 0.11 kcal/mol | 3.23 ± 0.082 kcal/mol | 3.09 ± 0.11 kcal/mol
14 | SAGKTVEIKVTLKITRYEKLPDGSVKKEVKTLTITVTMSEEELNKEEIKNALKELLEKLPPDVKKIEITSAG [r5_849_TrROS_Hall] | 2.8 ± 0.17 kcal/mol | 4.63 ± 0.083 kcal/mol | 4.34 ± 0.22 kcal/mol
15 | SAGGSAGGSAGGSMTTVTLPDAVSTNVTTTKLPDNTTKVDITTTFPDGSTRSSTITINPSAGGSAGGSAGGS [r4_452_JUSTAS] | -0.305 ± 0.049 kcal/mol | 1.32 ± 0.05 kcal/mol | 0.908 ± 0.07 kcal/mol
16 | SAGGSAGGSASMKKKKFVVKTEEEAEKVIAELKAKVPKGTEVEIYIKNEDGTLEKYAIIKISAGGSAGGSAG [r3_92_JUSTAS] | 2.91 ± 0.11 kcal/mol | 3.15 ± 0.047 kcal/mol | 3.13 ± 0.15 kcal/mol
17 | SAGGSAGGSWKPIPYKIKMTDGDGEKHEFPVQIWVAPEDGWVFIDFPNGHPFWIPANNIKIEPSAGGSAGGS [r12_256_TrROS] | 0.66 ± 0.062 kcal/mol | 1.88 ± 0.12 kcal/mol | 1.4 ± 0.13 kcal/mol
18 | SLIPIRPLATSPSGDLLIEVPAEEDLVEEIKKYLKEKFPGYTPVEVKPVESPPLYLVLFSHPSGKKVWLGSA [r9_1164_JUSTAS] | 0.967 ± 0.03 kcal/mol | 1.35 ± 0.082 kcal/mol | 1.24 ± 0.07 kcal/mol
19 | SAGGSAEWKEKALKMGAKEVKEDPANGYLYVTFPGPGRTIVIWKKEEDGTVTKVKTVSPSVKVEYKSAGGSA [r15_247_JUSTAS] | -0.292 ± 0.41 kcal/mol | 0.817 ± 0.27 kcal/mol | 0.491 ± 0.18 kcal/mol
20 | GEVVERLKLPDLELVEVRTTTEGDTTFVYVKLKRPDSYYVVKLTVTPATGEVTVTEEKKVSPNETLEEVLAS [r1_383_JUSTAS] | 1.66 ± 0.12 kcal/mol | 2.76 ± 0.12 kcal/mol | 2.36 ± 0.21 kcal/mol
21 | SAGDEIEEKVKEILEKLNPDEPVVIKRTKDGRILAENPKTGKFIIFDISPDGTIKIVKVVPAEEAKKLGSAG [r5_852_TrMRF] | 1.47 ± 0.12 kcal/mol | 2.52 ± 0.071 kcal/mol | 2.18 ± 0.19 kcal/mol
